Tests used:
SrtA7M = target: T1, SrtA7M (Staphylococcus aureus, UniProt Q2FV99, D160N/D165A/E105K/E108Q/G167E/K190E/K196T/P94R); assay: In vitro conjugation of purified LPETGG-tagged proteins by SrtA7M (ESI-TOF LC-MS); format: biochemical; conditions: 10 μM SrtA7M, 100 mM Azp or propargylamine, 8 hours, 37° C.
T1 construct: […]; made in house; host or cells: E. coli
Protocol: FIG. 3. Transpeptidation of purified proteins. Purified proteins expressed with a C-terminal LPETGG sequence were incubated with 10 μM SrtA7M for 8 hours at 37° C. along with the desired amine. Proteins were then diluted 10-fold with 0.2% formic acid and analyzed by ESI-TOF LC-MS. (A) Maltose binding protein. (B) Sf9 nanobody, and (C) Fibronectin Fn10, all show 80-100% conversion to the desired conjugate.
FIG. 9. Sortase conjugation time course.
FIG. 10. In vitro conjugation of sfGFP derivatives. (A) His-sfGFP-srt and (B) sfGFPHis-srt were incubated with 10 μM SrtA7M and 100 mM Azp or propargylamine for 8 hours at 37° C.
We next determined the ability of SrtA7M to modify purified proteins. We incubated several proteins containing a C terminal LPETGG sequence (srt) with 10 μM enzyme and either 100 mM Azp or propargylamine, followed by quenching with formic acid. […] To define the effective range of reaction conditions, we tested the conjugation of MBP-srt with Azp at different time points and substrate concentrations.
In vitro conjugation of proteins. Purified MBP-srt, His-sfGFP-srt, Nanobody-His-srt, Glutathione-S-transferase-His-srt, Fibronectin-His-srt, and sfGFP-His-srt were labeled after purification in 100 mM ammonium bicarbonate buffer pH 7.8. […]

LPETGSW peptide = LPETGSW peptide (Staphylococcus aureus, UniProt Q2FV99, G167E); assay: Transpeptidation of LPETGSW peptide with wild-type SrtA; conditions: 15-fold more enzyme (150 μM), 20 hours, 37° C., 25 mM Tris.HCl pH 7.5, 10 mM CaCl2

B1: Fn10-His-srt: engineered fibronectin domain Fn10 with His tag and C terminal LPETGG, SEQ ID NO: 29 (protein, listed as Homo sapiens)
chain: MLVPRGSSDVPRDLEVVAATPTSLLISWDAPAVTVRYYRITYGETGGNSPVQEFTVPGSKSTATISGLKPGVDYTITVYAVTPRGDWNEGSKPISINYRTGKKGKGGHHHHHHLPETGG
modifications: His tag, LPETGG
conversion / modification of the protein with the amine (SrtA7M): complete conversion

B2: Wild-type SrtA: wild-type Staphylococcus aureus sortase A Δ59, SEQ ID NO: 26 (protein, listed as Homo sapiens)
chain: MQAKPQIPKDKSKVAGYIEIPDADIKEPVYPGPATPEQLNRGVSFAEENESLDDQNISIAGHTFIDRPNYQFTNLKAAKKGSMVYFKVGNETRKYKMTSIRDVKPTDVEVLDEQKGKDKQLTLITCDDYNEKTGVWEKRKIFVATEVKLEHHHHHH
conversion of LPETGSW peptide (LPETGSW peptide): modest conversion
